Data taken from PMC5079630, “STAT2 Is a Pervasive Cytokine Regulator due to Its Inhibition of STAT1 in Multiple Signaling Pathways” (PLoS Biology, 2016).

B1: STAT1 N domain (aminoterminal domain), recombinant (domain or fragment)
chain: MSQWYELQQLDSKFLEQVHQLYDDSFPMEIRQYLAQWLEKQDWEHAANDVSFATIRFHDLLSQLDDQYSRFSLENNFLLQHNIRKSKRNLQDNFQEDPIQMSMIIYSCLKEERKILENAQRFNQAQSGNIQ
modifications: limits not printed (S1 Text/ref. 22); N domain taken up to the start of the conventional STAT1 core fragment (132-713); Strep-tag omitted / limits not printed (S1 Text/ref. 22); N domain taken up to …
B2: STAT2 N domain (aminoterminal domain), recombinant, mEGFP-tagged (domain or fragment)
chain: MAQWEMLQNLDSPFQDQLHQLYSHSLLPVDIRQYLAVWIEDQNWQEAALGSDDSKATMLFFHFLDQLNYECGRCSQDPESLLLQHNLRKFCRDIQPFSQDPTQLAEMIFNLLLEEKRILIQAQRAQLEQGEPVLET
modifications: limits not given; N domain taken up to the start of the core region (P52630 region from 138), homologous to STAT1 1-131; mEGFP and Strep-tag omitted / limits not printed (S1 Text/ref. 22); N domain

Biological target: T1, STAT1 N domain (aminoterminal domain), recombinant
T1 chain: B1 chain
Experiment: AUC; sedimentation equilibrium of purified recombinant N domains, homo- and heterotypic associations (dimer to monomers); STAT1 N domain and mEGFP-tagged STAT2 N domain at final equimolar concentrations of 2.5, 10, and 40 μM
Details: both partners purified

Row | Binder | fold stronger than STAT2 N domain homodimers [fold] | fold stronger than STAT1 N domain homodimers [fold]
1 | B1 | ~50 | –
2 | B2 | – | ≥ 1000
